Results published in US20200062804A1 (ADRX, published 2020).
Values joined by “and” are separate entries in the source; they are usually repeats but may differ in a detail not shown here. Equal entries are not always repeated. Non-standard residues stand in square brackets, D forms with d. No end group written: not given here. hArg = N=C(N)NCCCC[C@H](N)C(=O)O

What was measured:
Protein in Human Serum = test: protein binding in human serum; method not described
Nat1 (LTIITLE) = molecular target: T1, Nat1 (LTIITLE) (also: TFA salt); test: cell-based or functional assay
T1 peptide: LTIITLE

Molecule: rrrrrrrrrrpiyqwyrwq (peptide)
- % Protein Binding in Human Serum (Protein in Human Serum): 99%

Molecule: rrrrrrrrrrpihqrqyqr (peptide)
- % Protein Binding in Human Serum (Protein in Human Serum): 12%

Molecule: rrrrrrrrrrpikwrwyrr (peptide)
- % Protein Binding in Human Serum (Protein in Human Serum): 94%

Molecule: rrrrrrrrrrpirihyfrr (peptide)
- % Protein Binding in Human Serum (Protein in Human Serum): 93%

Molecule: rrrrrrrrrgggyqwyrwq (peptide)
- % Protein Binding in Human Serum (Protein in Human Serum): 89%

Molecule: rrrrrrrrrrpikfrfyhr (peptide)
- % Protein Binding in Human Serum (Protein in Human Serum): 86%

Molecule: rrrrrrrrrrpihlriwrn (peptide)
- % Protein Binding in Human Serum (Protein in Human Serum): 95%

B1: YRLRYVR (peptide)
peptide: YRLRYVR
- IC50, Thiofiavin T aggregation assay (Nat1 (LTIITLE)): 175 nM

B2: … (peptide)
peptide: RRRRRRRRRRPIIRIRHYP
- % Protein Binding in Human Serum (Protein in Human Serum): 83%

B3: IRIRRY (peptide)
peptide: IRIRRY
- IC50, Thiofiavin T aggregation assay (Nat1 (LTIITLE)): 205 nM

B4: LRIRYWK (peptide)
peptide: LRIRYWK
- IC50, Thiofiavin T aggregation assay (Nat1 (LTIITLE)): 36 nM

B5: Ile-Arg-Ile-homoArg-Arg-Tyr-Arg (peptide)
peptide: IRI[hArg]RYR
- IC50, Thiofiavin T aggregation assay (Nat1 (LTIITLE)): 40 nM

B6: … (peptide)
peptide: RRRRRRRRRRPIIRIRHYR
- % Protein Binding in Human Serum (Protein in Human Serum): 84%

B7: WTIRYYK (peptide)
peptide: WTIRYYK
- IC50, Thiofiavin T aggregation assay (Nat1 (LTIITLE)): 203 nM

B8: IRLRRYR (peptide)
peptide: IRLRRYR
- IC50, Thiofiavin T aggregation assay (Nat1 (LTIITLE)): 153 nM

B9: LRLRHYR (peptide)
peptide: LRLRHYR
- IC50, Thiofiavin T aggregation assay (Nat1 (LTIITLE)): 146 nM

B10: LYIRYTH (peptide)
peptide: LYIRYTH
- IC50, Thiofiavin T aggregation assay (Nat1 (LTIITLE)): 180 nM

B11: LFIKYHR (peptide)
peptide: LFIKYHR
- IC50, Thiofiavin T aggregation assay (Nat1 (LTIITLE)): 210 nM

B12: … (peptide)
peptide: PRRRRRRRRRRPIIRIRHYRP
- % Protein Binding in Human Serum (Protein in Human Serum): 89%

B13: LTIRLWH (peptide)
peptide: LTIRLWH
- IC50, Thiofiavin T aggregation assay (Nat1 (LTIITLE)): 198 nM

B14: ffrfhhr (peptide)
peptide: [dF][dF][dR][dF][dH][dH][dR]
- IC50, Thiofiavin T aggregation assay (Nat1 (LTIITLE)): 151 nM

B15: … (peptide)
peptide: PRRRRRRRRRRPITRIRFYRP
- % Protein Binding in Human Serum (Protein in Human Serum): 89%

B16: rihyfrr (peptide)
peptide: [dR][dI][dH][dY][dF][dR][dR]
- IC50, Thiofiavin T aggregation assay (Nat1 (LTIITLE)): 43 nM

B17: fwrwhrr (peptide)
peptide: [dF][dW][dR][dW][dH][dR][dR]
- IC50, Thiofiavin T aggregation assay (Nat1 (LTIITLE)): 147 nM and 164 nM

B18: YTRITYH (peptide)
peptide: YTRITYH
- IC50, Thiofiavin T aggregation assay (Nat1 (LTIITLE)): 150 nM

B19: qfrmhhr (peptide)
peptide: [dQ][dF][dR][dM][dH][dH][dR]
- IC50, Thiofiavin T aggregation assay (Nat1 (LTIITLE)): 181 nM

B20: yqyyfwr (peptide)
peptide: [dY][dQ][dY][dY][dF][dW][dR]
- IC50, Thiofiavin T aggregation assay (Nat1 (LTIITLE)): 181 nM

B21: fwrwarr (peptide)
peptide: [dF][dW][dR][dW][dA][dR][dR]
- IC50, Thiofiavin T aggregation assay (Nat1 (LTIITLE)): 176 nM

B22: qqryywr (peptide)
peptide: [dQ][dQ][dR][dY][dY][dW][dR]
- IC50, Thiofiavin T aggregation assay (Nat1 (LTIITLE)): 95 nM
- % Protein Binding in Human Serum (Protein in Human Serum): 82%

B23: TRIYRYK (peptide)
peptide: TRIYRYK
- IC50, Thiofiavin T aggregation assay (Nat1 (LTIITLE)): 213 nM

B24: lwrwyrr (peptide)
peptide: [dL][dW][dR][dW][dY][dR][dR]
- IC50, Thiofiavin T aggregation assay (Nat1 (LTIITLE)): 194 nM

B25: LAIKYHR (peptide)
peptide: LAIKYHR
- IC50, Thiofiavin T aggregation assay (Nat1 (LTIITLE)): 220 nM

B26: hwrwywk (peptide)
peptide: [dH][dW][dR][dW][dY][dW][dK]
- IC50, Thiofiavin T aggregation assay (Nat1 (LTIITLE)): 159 nM

B27: rfyyhrr (peptide)
peptide: [dR][dF][dY][dY][dH][dR][dR]
- IC50, Thiofiavin T aggregation assay (Nat1 (LTIITLE)): 76 nM
- % Protein Binding in Human Serum (Protein in Human Serum): 91%

B28: LRIRHYT (peptide)
peptide: LRIRHYT
- IC50, Thiofiavin T aggregation assay (Nat1 (LTIITLE)): 182 nM

B29: rlhwkhh (peptide)
peptide: [dR][dL][dH][dW][dK][dH][dH]
- IC50, Thiofiavin T aggregation assay (Nat1 (LTIITLE)): 215 nM

B30: rwrilqk (peptide)
peptide: [dR][dW][dR][dI][dL][dQ][dK]
- IC50, Thiofiavin T aggregation assay (Nat1 (LTIITLE)): 199 nM

B31: hlryhrk (peptide)
peptide: [dH][dL][dR][dY][dH][dR][dK]
- IC50, Thiofiavin T aggregation assay (Nat1 (LTIITLE)): 192 nM

B32: kfrfyhr (peptide)
peptide: [dK][dF][dR][dF][dY][dH][dR]
- IC50, Thiofiavin T aggregation assay (Nat1 (LTIITLE)): 32 nM
- % Protein Binding in Human Serum (Protein in Human Serum): 81%

B33: swwfrhr (peptide)
peptide: [dS][dW][dW][dF][dR][dH][dR]
- IC50, Thiofiavin T aggregation assay (Nat1 (LTIITLE)): 187 nM

B34: LYIRTLH (peptide)
peptide: LYIRTLH
- IC50, Thiofiavin T aggregation assay (Nat1 (LTIITLE)): 203 nM

B35: … (peptide)
peptide: PRRRRRRRRRRPIWTIKLWHP
- % Protein Binding in Human Serum (Protein in Human Serum): 100%

B36: fwrwhra (peptide)
peptide: [dF][dW][dR][dW][dH][dR][dA]
- IC50, Thiofiavin T aggregation assay (Nat1 (LTIITLE)): 228 nM

B37: … (peptide)
peptide: RRRRRRRRRRPIIRIRHYRP
- % Protein Binding in Human Serum (Protein in Human Serum): 81%

B38: yqwryrr (peptide)
peptide: [dY][dQ][dW][dR][dY][dR][dR]
- IC50, Thiofiavin T aggregation assay (Nat1 (LTIITLE)): 191 nM

B39: IRIRRAR (peptide)
peptide: IRIRRAR
- IC50, Thiofiavin T aggregation assay (Nat1 (LTIITLE)): 37 nM

B40: LRIYHHK (peptide)
peptide: LRIYHHK
- IC50, Thiofiavin T aggregation assay (Nat1 (LTIITLE)): 152 nM

B41: … (peptide)
peptide: RRRRRRRRRRPILTRITLE
- % Protein Binding in Human Serum (Protein in Human Serum): 66%

B42: yqwyrwq (peptide)
peptide: [dY][dQ][dW][dY][dR][dW][dQ]
- IC50, Thiofiavin T aggregation assay (Nat1 (LTIITLE)): 194 nM
- % Protein Binding in Human Serum (Protein in Human Serum): 98%

B43: rwrwhhr (peptide)
peptide: [dR][dW][dR][dW][dH][dH][dR]
- IC50, Thiofiavin T aggregation assay (Nat1 (LTIITLE)): 156 nM

B44: rqhyrwr (peptide)
peptide: [dR][dQ][dH][dY][dR][dW][dR]
- IC50, Thiofiavin T aggregation assay (Nat1 (LTIITLE)): 210 nM

B45: … (peptide)
peptide: PRRRRRRRRRRPILRIRYWKP
- % Protein Binding in Human Serum (Protein in Human Serum): 98%

B46: qiryfrr (peptide)
peptide: [dQ][dI][dR][dY][dF][dR][dR]
- IC50, Thiofiavin T aggregation assay (Nat1 (LTIITLE)): 167 nM

B47: FRIRRYR (peptide)
peptide: FRIRRYR
- IC50, Thiofiavin T aggregation assay (Nat1 (LTIITLE)): 185 nM

B48: LYIRLTH (peptide)
peptide: LYIRLTH
- IC50, Thiofiavin T aggregation assay (Nat1 (LTIITLE)): 192 nM

B49: rwmywqr (peptide)
peptide: [dR][dW][dM][dY][dW][dQ][dR]
- IC50, Thiofiavin T aggregation assay (Nat1 (LTIITLE)): 216 nM

B50: WTRITLK (peptide)
peptide: WTRITLK
- IC50, Thiofiavin T aggregation assay (Nat1 (LTIITLE)): 222 nM

B51: LYIKYHR (peptide)
peptide: LYIKYHR
- IC50, Thiofiavin T aggregation assay (Nat1 (LTIITLE)): 148 nM
